First the molecules themselves.
B1: NCS.1 (human IgG1) (antibody, V domains shown)
VH: QVQLPESGPRLVKPSETLSLTCSVSGESISSGGYYWTWIRQHPGKGLEWIGNIFDTGSTHYSPSLKTRLTISIDTSKNQFYLRLNSATAADTAVYYCARVGYSLETDRPYYFGLDVWGQGTTVTVSS
VL: DIVMTQSPLSLPVTPGEPASISCRSSQSLLHSNGYTYLDWYLQKPGQSPQLLIYLASNRASGVPDRFSGSGSGTYFTLKISRVEAEDVGVYYCMQAVQTPWTFGQGTKVEIK
B2: NCS.1.3 (human IgG1) (antibody, V domains shown)
VH: B1 VH with P5Q, H60D, N85T, Y102F, F112L
VL: B1 VL with S10T, L55F, T99S
B3: NCS.1.1 (human IgG1) (antibody, V domains shown)
VH: B1 VH with P5Q, H60D, Y102F, F112L
VL: B1 VL with Y54S, L55F, A56T

We go through three molecules from publication PMC12316982 (Nature Communications, 2025).

Positions count from the first letter of the chain named.

The first assay addresses stabilized neuraminidase protein (sNAp) of A/Michigan/45/2015 (MI15, H1N1) (Influenza A virus A/Michigan/45/2015 …, UniProt A0A0X9QTS2, stabilised). The assay can be described thus: ELISA. As to conditions: both partners purified.
With B1, the binding result was “binds”.
B2: the binding result is given as “binds”.
Take B3: the binding result is “binds”.

A further assay has as its target T1, NA of the influenza B-Victoria lineage virus B/Colorado/06/2017 (B/Vic CO17) (Influenza B virus B/Colorado/06/2017 …, UniProt A0A1X9RX69, strain).
T1 construct: not shown: His6, N-terminal, kept
The assay is described as follows: ELISA. As to conditions: both partners purified.
For the molecule B1, the binding result was “binds”.
Turning to B2, the binding result is “binds”.
Same read-out and setting: for B3 the value was “binds”.

Another assay has as its target stabilized neuraminidase protein (sNAp) of A/New Caledonia/20/1999 (NC99, H1N1) (Influenza A virus A/New …, UniProt Q7TG96, stabilised). The assay can be described thus: ELISA. As to conditions: both partners purified.
For B1, the binding result is “binds”.
Still for that read-out and setting: for B2 the value was “binds”; for B3, “binds”.
